According to US10500174B2, “Pharmaceutical composition for preventing or treating degenerative brain disease” (SOONCHUNHYANG UNIVERSITY INDUSTRY ACADEMY COOPERATION …, priority 2016, dated 2019):

Tests used:
[1] = system: HeLa cells; test: Evaluation of cellular uptake of ibuprofen conjugate (confocal fluorescence); format: cell-based; conditions: 10 μM, 37° C., 30 min, confocal laser scanning microscope
Procedure: HeLa cells were cultured at 37° C. in wet air containing 5% CO2 in a DMEM (high-glucose Dulbecco's Modified Eagle's Medium) containing penicillin-added 10% (v/v) FBS (fetal bovine serum). Subculturing was performed every 2 to 3 days until the cells became subconfluent.
HeLa cells (1×10^5 cells per well) were seeded on a 35 mm coverglass dish (SPL Ltd., Korea) and cultured for 24 hr, after which the medium was removed, and the HeLa cells were washed with cold PBS (×1) (Dulbecco's phosphate buffered saline, pH 7.4). The resulting cells were cultured at 37° C. for 30 min in 3 ml of DMEM containing 10 μM Compound 8 or 10 μM Compound 9, after which the medium was removed, and the HeLa cells were washed five times with cold PBS. The intracellular internalization and intracellular localization of the compound were investigated through fluorescence, achieved using fluorescein, using a confocal laser scanning microscope (Olympus Fluoview FV1000, N.A. 1.30, 40×, planApo, oil immersion lens). The fluorescence of FITC was analyzed at an excitation wavelength of 488 nm and an emission wavelength of 500 to 530 nm, and all experiments were performed three times.

[2] = Plasma stability test (HPLC); format: in vitro ADME; conditions: human plasma, 37° C.
Procedure: In order to evaluate plasma stability, a homogeneous solution of Compound 8 ([…]) was prepared. An aliquot thereof was injected into the plasma (human, Sigma, USA) so as to reach a final concentration of 50 μg/ml, followed by vortexing and culturing at 37° C. for 0, 3, 6, 9, 12, 15, 18, 21 and 24 hr. The plasma solution (200 μl) was then mixed with 1 ml of MeOH to prevent hydrolysis of Compound 8. This solution was added with biotin (internal standard) in distilled water (100 μl, 5 μg/ml) and centrifuged at 2000 rpm for 10 min. The supernatant was collected and dried in air. The residue was dissolved in distilled water (2 ml) and centrifuged at 2000 rpm for 10 min. The supernatant thus obtained was analyzed using HPLC through the following method.
10 μl of the clean supernatant obtained through the above method was introduced into the HPLC system. The UV detector was set at 260 nm and the flow rate was 1.0 ml/min for a running time of 10 to 15 min. The isocratic mobile phase system consisted of MeOH/H2O (30/70), and the column oven was maintained at 37° C. using a C18-column (Agilent, ZORBAX, 4.6×250 mm, 5 μm).
HPLC chromatograms were obtained at each interval, and the remaining amount of Compound 8 was calculated and expressed as a percentage by subtracting the concentration of ibuprofen, released based on the area under the curve, from the sum of the initial concentration of Compound 8 and the internal standard.

[3] = In-vivo distribution in mouse tissue (fluorescence imaging of tissue flakes); conditions: 94.6 mg kg^−1 intraperitoneal, after 20 min
Procedure: After 20 min, the mice administered with the above solution were perfused with PBS (pH 7.4) containing paraformaldehyde (4%), and the main organs (brain, heart, lungs, kidneys, spleen and liver) thereof were cultured overnight in PBS (phosphate buffered saline) containing sucrose (0.5 M). A cryoprotectant was added thereto and the above tissue was cut into 15 μm flakes using a cryostat, transferred to a coated slide glass and then dried. Each flake was washed with PBS, treated with Triton X-100 (0.3%) at room temperature for 15 min, and analyzed using an Axioplan2 fluorescence imaging microscope. As a control, deionized water (500 μl) was injected into other mice, and the same procedures as above were performed, after which the compound represented by green fluorescence of FITC in each tissue was compared with autofluorescence of the control.

Row | distribution in brain (green fluorescence of FITC) [3] | Molecule | cellular uptake / intracellular FITC fluorescence [1] | hydrolysis relative to the initial time (0 hr) ([2]; 50 μg/ml, after culture for 3 hr) | decrease of the amount remaining ([2]; 50 μg/ml, next culture time of 21 hr (3 to 24 hr)) [%] | half-life and stability in the plasma (in words) ([2]; up to 24 hr)
1 |  | CC(C)Cc1ccc(C(C)C(=O)NCC(=O)OC[C@H](OC(=O)CCCCCN(CCCNC(=N)N)CCCNC(=N)N)[C@@H](OC(=O)CCCCCN(CCCNC(=N)N)CCCNC(=N)N)[C@H](OC(=O)CCCCCN(CCCNC(=N)N)CCCNC(=N)N)[C@@H](COC(=O)CCCCCNC(=S)Nc2ccc3c(c2)C(=O)OC32c3ccc(O)cc3Oc3cc(O)ccc32)OC(=O)CCCCCN(CCCNC(=N)N)CCCNC(=N)N)cc1.Cl.Cl.Cl.Cl.Cl.Cl.Cl.Cl (stereo partly drawn) [Compound 8, 1-O-(2-aminoacetoxy-ibuprofen)-2,3,4,5-tetra-O—[N-{bis-(3-guanidinopropyl)}-6-aminohexanoyl]-6-O-[6-(fluoresceinyl-5-thioureido)-hexanoyl]-D-sorbitol 8HCl] | strong green fluorescence that is predominant in the cytoplasm | about 5% | ~8 | long half-life and considerable stability
2 | not distributed in the brain | fluoresceinyl (S)-2-(2-(4-isobutylphenyl)propanamido)-acetate [Compound 9] | did not show fluorescence in the cells |  |  | 
